This passage reports Kd results from patent publication US20190185561A1 (Seagen, published 2019).

Usually Kd stands for the concentration at which binding is half-saturated.

The target of experiment [1] is T1, human CD47 expressed on the cell surface (human, UniProt Q08722 19-323).
T1 construct: whole, on cells; also called CD47 on SW780, human red blood cells, HT1080, HCT116, Raji, L450cy and patient blood cells
Briefly: saturation binding, flow cytometry, SW780 cells; SW780 human bladder cancer cells.

Experiment [2] has as its target T2, Soluble recombinant human CD47-Fc (R&D Systems) (human, UniProt Q08722 19-139).
T2 construct: Bought reagent; also called rhCD47; human CD47 (plate-coated); not shown: Fc part of the bought fusion protein
The experiment is described as follows: saturation binding ELISA on rhCD47. Background: An ELISA detects its analyte on a solid surface through an enzyme-linked reagent.

The target in experiment [3] is T1, human CD47 expressed on the cell surface. The experiment is described as follows: saturation binding, flow cytometry, HCT116 cells; HCT116 cells. On the technique in general: In flow cytometry, cells or beads pass a laser one at a time.

B1: hB6H12.3 G91A (antibody, V domains shown)
VH: EVQLLESGGGLVQPGGSLRLSCAASGFTFSGYGMSWVRQAPGKRLEWVATITSGGTYTYYPDSVKGRFTISRDNSKNTLYLQMNSLRAEDTAIYFCARSLAGNAMDYWGQGTLVTVSS
VL: EIVMTQSPDFQSVTPKEKVTLTCRASQTISDYLHWYQQKPDQSPKLLIKFASQSISGVPSRFSGSGSGSDFTLTINSLEAEDAATYYCQNAHGFPRTFGQGTKLEIKR
notes: IgG1; also called hB6H12.3 (deamidation mutant); hvH1/hvK3 G91A
As to B1, the Kd in experiment [1] turned out to be 62.3 nM; in experiment [2] it was 2.7 nM.

B2: Ab47 bearing the A2B1 coiled coil masking domain (antibody)
VH: GASTSVDELQAEVDQLQDENYALKTKVAQLRKKVEKLSEGGGGGPLGVRGGGGSEVQLVESGGGLVQPGGSLRLSCAASGFTFSGYGMSWVRQAPGKGLEWVATITSGGTYTYYPDSVKGRFTISRDNAKNSLYLQMNSLRAEDTAVYYCARSLAGNAMDYWGQGTLVTVSS
VL: GASTTVAQLRERVKTLRAQNYELESEVQRLREQVAQLASGGGGGPLGVRGGGGSEIVLTQSPATLSLSPGERATLSCRASQTISDYLHWYQQKPGQAPRLLIKFASQSISGIPARFSGSGSGTDFTLTISSLEPEDFAVYYCQNGHGFPRTFGQGTKVEIKR
notes: IgG1
In turn, B2 registered a Kd in experiment [3] of 1780 nM.
